From the supplement of paper PMC10567573

B1: ZNF511 (parent)
chain: YEHHYHTLHGNVCSFCKRAFPSGH

Variants of: B1
Assay: protein stability index of a GFP-peptide fusion (GPS, HEK-293T) (PSI 1-6); higher = more stable
Conditions: c terminus: a fixed tail appended
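Further: lentivirally expressed fusions sorted by FACS into six bins by GFP to DsRed ratio, PSI derived from sequencing read proportions per bin multiplied by bin number.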

Protein stability index, by site and new letter:
P21: I 2.29; V 2.34; S 2.48; M 2.57; Q 1.97; C 3.6; F 2.13; N 1.97; G 2.31; R 1.91; E 2.2; W 1.61; D 2.88; A 2.6; H 2.32; T 2.38; K 1.9; Y 1.77; L 2.36
N11: T 2.68; D 2.75; K 2.31; H 2.21; S 1.95; E 2.22; A 2.64; W 2.17; F 2.6; G 2.12; M 2.68; L 1.77; Y 1.99; V 1.87; I 1.83; Q 2.2; P 2.6; C 2.73; R 2.62
G10: C 2.46; A 2.23; L 1.95; M 2.01; Y 2.46; S 1.97; H 1.87; F 1.78; K 2.76; Q 1.78; N 2.28; W 2.29; R 1.59; V 1.87; I 1.83; D 2.29; P 1.95; E 2.39; T 2.13
V12: N 2.73; A 2.44; E 3.67; S 2.41; R 2.24; L 2.06; F 2.05; Y 2.13; I 2.3; P 2.31; Q 2.66; G 1.84; C 2.02; M 2.17; D 3.41; T 2.44; W 2.14; K 2; H 2.4
A19: I 1.85; H 2.85; T 2.29; G 1.96; D 2.42; W 2.25; R 2.37; Q 1.47; C 2.19; L 2.36; F 2.84; P 1.89; S 2.28; K 2.11; N 2.37; V 1.99; Y 2.25; M 2.29; E 2.13
L8: S 2.23; N 2.67; Y 2.6; E 2.65; H 2.92; A 2.47; F 2.62; G 2.52; C 3.62; D 2.57; W 2.3; K 2.26; M 2.12; P 2.43; Q 2.62; T 2.67; R 2.4; I 2.44; V 2.74
H9: T 2.16; S 1.72; W 1.83; F 1.68; D 1.97; N 2.49; G 2.24; C 2.18; M 2.06; E 1.93; A 1.93; R 2.48; V 2.57; I 2.28; P 2.72; K 2.77; Y 2; Q 2.19; L 1.5
R18: I 1.6; D 2.46; P 2.87; S 2.26; G 2.27; Y 2.24; F 1.94; C 1.89; K 2.23; N 2.37; M 1.96; A 2.06; L 2.17; T 2.29; W 1.79; Q 1.53; H 2.29; E 2.14; V 1.73
C16: D 2.17; P 2.02; S 1.71; K 2.35; N 2.12; W 1.62; Y 2.09; V 2.14; Q 2.26; A 2.05; I 1.86; E 2.5; T 2.4; F 1.99; L 2.1; R 2.17; G 2; M 2.01; H 1.82
S22: A 2.08; G 2.02; I 2.24; D 2.33; V 1.84; Q 1.45; L 2.87; M 2.89; K 1.8; P 2.67; E 2.44; Y 1.7; H 2.99; N 3.01; R 2.03; C 2.69; F 2.15; W 1.47; T 2.27
F20: T 2.68; G 2.82; S 2.96; R 2.12; Y 2.25; Q 2.37; W 2.42; N 3.13; D 3.27; H 3.37; P 2.34; K 2.64; E 2.4; C 2.55; I 2.23; V 2.58; L 2.27; M 2.38; A 2.41
G23: M 1.92; H 1.38; R 1.98; C 2.33; V 1.61; I 1.86; Q 1.93; T 2.16; E 1.86; S 2.7; D 2.31; Y 1.97; F 1.83; P 2.27; N 2.51; K 2.01; A 2.1; W 1.62; L 1.63
T7: G 2.14; P 2.2; K 1.24; N 2.09; D 2.64; E 2.07; H 2.46; V 1.85; Y 2.09; C 2.77; A 1.95; F 2.06; R 2.07; L 2.28; S 1.72; M 2.86; W 1.75; I 2.31; Q 1.9
C13: R 2.17; H 1.9; I 2.6; Y 1.78; K 2.04; A 2.18; E 2.36; D 2.29; T 1.97; V 1.92; G 2.54; P 2.11; F 1.5; S 2.22; W 1.52; L 1.5; Q 2.63; N 2.67; M 1.83
H24: C 2.07; E 2.57; F 2.5; I 1.78; G 2.09; A 2.13; D 2.35
S14: W 2.53; M 2.3; P 3.3; R 2.87; E 2.53; G 1.88; K 2.3; Y 3.38; C 2.39; T 2.23; A 2.94; F 2.03; H 2.31; D 2.4; V 1.38; I 2.53; L 2.04; N 2.57; Q 2.88
K17: C 1.89; V 1.87; F 1.84; P 1.78; Q 2.41; D 2.5; A 2.23; E 2.59; T 2.02; H 2.18; L 2.4; M 1.77; R 2.2; G 2.61; N 2.18; Y 1.77; S 2.22; W 1.3; I 1.84
F15: I 2.38; M 2.54; E 2.79; K 2.21; C 3.02; S 2.39; L 2.32; H 2.39; Q 3.25; P 2.01; A 2.76; T 2.99; R 2.35; N 2.72; Y 2.31; D 2.48; G 2.93; V 2; W 2.96
H6: V 2.51; Y 1.83; T 1.94; W 1.66
